Consider 36 sequences from the supplement of paper PMC12764529.

± gives the half width of the 95% confidence interval.

The nature of data set [1]: folding stability dG unfold (combined trypsin and chymotrypsin); higher = more stable. Summed up:
(§1)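 Unfolding free energy was derived, per protease or combined, by relating Bayesian-fitted K50 values from sequencing counts to a sequence-predicted unfolded-state K50 and a shared folded-state K50. The underlying digests exposed cysteine-free mini-proteins under 80 residues, in a PA-tagged cDNA display construct, to trypsin and chymotrypsin at 11 threefold-diluted concentrations and to a no-protease condition. A filter kept only designs with AlphaFold2 dimer inter-PAE above 15.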

Data set [2] is described as follows: folding stability dG unfold from chymotrypsin proteolysis; higher = more stable. Summed up:
as §1

The nature of data set [3]: folding stability dG unfold from trypsin proteolysis; higher = more stable. Summed up:
as §1

As for “SAGGSAGGSAGGSDNSITLDFFFNNYYIKITFNPWNGNLEIDEVQKVPPPPKPKDPGDKSAGGSAGGSAGGS [r4_21_TrROS]”, the figures for the “folding stability dG unfold” value in data set [1], in data set [2] and in data set [3] were 2.94 ± 0.22 kcal/mol, 3.19 ± 0.091 kcal/mol and 2.71 ± 0.13 kcal/mol, respectively.
With “SAGGSAGGSAGGSDTPGNYKKVKITLKRVTLGDNNTPKVETVELEVTVPPNYTLEDVLSSAGGSAGGSAGGS [r4_283_TrMRF]”, the “folding stability dG unfold” value was determined as 1.14 ± 0.16 kcal/mol in data set [1], 1.1 ± 0.14 kcal/mol in data set [2] and 0.976 ± 0.072 kcal/mol in data set [3].
For “SAGGSAGGSAGGSEEEIKKLAAEGGSFTATIPVVTPDGKPVEKTVTVEVKTDPKTGKLVSAGGSAGGSAGGS [r10_346_JUSTAS]”, the “folding stability dG unfold” value in data set [1] was 0.791 ± 0.083 kcal/mol; in data set [2] it was 0.906 ± 0.025 kcal/mol; in data set [3], 0.482 ± 0.043 kcal/mol.
For “SAGGSAGGSAGGSEGAPIRVTLTGTRTETRTRPDGSPVTDSGTDTVEFTLDLYDPEKSGSAGGSAGGSAGGS [r4_450_TrMRF]”, in that order: -0.363 ± 0.21 kcal/mol, -0.0249 ± 0.13 kcal/mol and -1.4 ± 0.66 kcal/mol.
Regarding “SAGGSAGGSAGGSEKPPIKLKIKVYDPETNELVSEVEVELEPGQSLEELLKKFDVVEIESAGGSAGGSAGGS [r4_187_TrROS_Hall]”, the “folding stability dG unfold” value in data set [1] was 2.66 ± 0.12 kcal/mol; in data set [2], 2.94 ± 0.064 kcal/mol; in data set [3], 1.71 ± 0.1 kcal/mol.
For “SAGGSAGGSAGGSEVEVTTRPDGSIVARVRLPDGGVLTLVAEVGPDGSVVVTEASLSPESAGGSAGGSAGGS [r4_246_TrMRF]”, in that order: 1.66 ± 0.052 kcal/mol, 1.94 ± 0.027 kcal/mol and 0.856 ± 0.026 kcal/mol.
For the sequence “SAGGSAGGSAGGSFDIEQERNPENGYHRVTIDFPNGPPVEIWMPPGSTLEQIEDLAKQFSAGGSAGGSAGGS [r4_205_TrROS]”, the “folding stability dG unfold” value in data set [1] was 0.878 ± 0.12 kcal/mol; in data set [2], 0.658 ± 0.1 kcal/mol; in data set [3] it was 1.07 ± 0.036 kcal/mol.
For “SAGGSAGGSAGGSFEVVSVDETVTVPPGATVTIVVRDENGKLLTFTFEVRLVPPPPEEESAGGSAGGSAGGS [r10_573_TrROS_Hall]”, the results for the “folding stability dG unfold” value in data set [1], in data set [2] and in data set [3] were 1.86 ± 0.18 kcal/mol, 1.95 ± 0.072 kcal/mol and 1.58 ± 0.1 kcal/mol, respectively.
Regarding “SAGGSAGGSAGGSFKIKDIEVNPDALKKGNFIQIRIENGWVIHINPNGEIEVVELPPDASAGGSAGGSAGGS [r4_373_TrROS]”, the results for the “folding stability dG unfold” value in data set [1], in data set [2] and in data set [3] were 1.25 ± 0.095 kcal/mol, 1.59 ± 0.072 kcal/mol and 0.356 ± 0.083 kcal/mol, respectively.
As to “SAGGSAGGSAGGSGLYLRLFDPGTGNVVAEVRVEIAPDGSLIAEARVADVPPVEDPEKASAGGSAGGSAGGS [r4_178_TrMRF]”, the “folding stability dG unfold” value in data set [1] was determined as 1.85 ± 0.17 kcal/mol; in data set [2], 2.39 ± 0.072 kcal/mol; in data set [3], 0.712 ± 0.048 kcal/mol.
In the case of “SAGGSAGGSAGGSGMKYKVTVTFPGGEVRSLEVDSVEEALEKLKEENRPIKEVTVEPLESAGGSAGGSAGGS [r4_213_JUSTAS]”, the results for the “folding stability dG unfold” value in data set [1], in data set [2] and in data set [3] were 2.44 ± 0.16 kcal/mol, 2.54 ± 0.13 kcal/mol and 2.2 ± 0.14 kcal/mol, respectively.
Turning to “SAGGSAGGSAGGSGMTSTTYRLPEGNVVLVETFDPATGTVTLEIRGPPSVERTLTLPVASAGGSAGGSAGGS [r4_443_JUSTAS]”, the figures for the “folding stability dG unfold” value in data set [1], in data set [2] and in data set [3] were 3.21 ± 0.24 kcal/mol, 3.64 ± 0.088 kcal/mol and 2.63 ± 0.29 kcal/mol, respectively.
As to “SAGGSAGGSAGGSGMTTTLLEQREFTLPNGEPVRVTVARFPGGEIVTETEDGVVTTDPLSAGGSAGGSAGGS [r4_111_JUSTAS]”, the “folding stability dG unfold” value in data set [1] is 0.159 ± 0.08 kcal/mol; in data set [2], 0.281 ± 0.08 kcal/mol; in data set [3], -0.134 ± 0.064 kcal/mol.
Take “SAGGSAGGSAGGSGMTYRTVEIEVRLPEVPGKTVKITIVVPEGATEEEIKALAEELARKSAGGSAGGSAGGS [r4_442_TrROS_Hall]”: the “folding stability dG unfold” value in data set [1] was determined as 2.94 ± 0.12 kcal/mol; in data set [2] it was 2.88 ± 0.039 kcal/mol; in data set [3], 2.87 ± 0.14 kcal/mol.
In the case of “SAGGSAGGSAGGSGNPVVRVFEFDDYIAVVTFNPGDGSVEVLSVGKVPPAAIPGSPELSSAGGSAGGSAGGS [r4_21_TrMRF]”, the “folding stability dG unfold” value is 1.17 ± 0.036 kcal/mol in data set [1], 1.16 ± 0.033 kcal/mol in data set [2] and 1.08 ± 0.024 kcal/mol in data set [3].
Regarding “SAGGSAGGSAGGSGPPSLPGVLVEIPEPLPGPEGTEFSDPKGYKYTYDPSNGKVLVERASAGGSAGGSAGGS [r4_78_JUSTAS]”, the entries for the “folding stability dG unfold” value in data set [1], in data set [2] and in data set [3] were -0.242 ± 0.19 kcal/mol, -0.0458 ± 0.16 kcal/mol and -0.753 ± 0.17 kcal/mol, respectively.
Regarding “SAGGSAGGSAGGSGPSVTVSTTTLPPLPVTVETVTVGDTTVLVVFTPEGGSAVVPSGALSAGGSAGGSAGGS [r4_256_JUSTAS]”, the “folding stability dG unfold” value in data set [1] amounted to 1.4 ± 0.087 kcal/mol; in data set [2] it was 0.858 ± 0.02 kcal/mol; in data set [3], 1.96 ± 0.091 kcal/mol.
Turning to “SAGGSAGGSAGGSGPSVVLVSLPDGSYIAFPSGADVNIEIPSSSSGARIVAVIPLSELSSAGGSAGGSAGGS [r4_122_TrMRF]”, the entries for the “folding stability dG unfold” value in data set [1], in data set [2] and in data set [3] were 0.518 ± 0.11 kcal/mol, 0.714 ± 0.024 kcal/mol and 0.111 ± 0.059 kcal/mol, respectively.
Regarding “SAGGSAGGSAGGSGSMSVSGGPSVIVVTLPGGEKVVLPLDELDELYKLPYVSATTVSLPSAGGSAGGSAGGS [r4_348_JUSTAS]”, the entries for the “folding stability dG unfold” value in data set [1], in data set [2] and in data set [3] were 1.13 ± 0.14 kcal/mol, 0.24 ± 0.18 kcal/mol and 1.45 ± 0.065 kcal/mol, respectively.
With “SAGGSAGGSAGGSGSVRIKVYNPKTGEVLELEVPEELVPAAVEAAKALGFEKVEVSPGKSAGGSAGGSAGGS [r4_102_TrMRF]”, the results for the “folding stability dG unfold” value in data set [1], in data set [2] and in data set [3] were 2.49 ± 0.13 kcal/mol, 2.91 ± 0.077 kcal/mol and 1.59 ± 0.065 kcal/mol, respectively.
“SAGGSAGGSAGGSGVLNIDEVWEDPESDLYTVVTTGEDEGTRVFVFDKNGKLLAEADLPSAGGSAGGSAGGS [r4_259_TrMRF]”: the “folding stability dG unfold” value in data set [1] stood at 0.443 ± 0.1 kcal/mol; in data set [2], 0.405 ± 0.12 kcal/mol; in data set [3] it was 0.274 ± 0.034 kcal/mol.
On to “SAGGSAGGSAGGSIEINIMFELPNGLIFRISTTIEPNPDGNLKLDIDIEVIPIKPGQPISAGGSAGGSAGGS [r10_241_TrROS]”, for which the “folding stability dG unfold” value in data set [1] turned out to be 3.96 ± 0.23 kcal/mol; in data set [2] it was 4.19 ± 0.13 kcal/mol; in data set [3] it was 3.11 ± 0.14 kcal/mol.
For “SAGGSAGGSAGGSIEPITIILPDKIIRIYRFEDGTIVEIIDPETGKPTFISLEDAKKLIGSAGGSAGGSAGG [r7_372_TrMRF]”, the entries for the “folding stability dG unfold” value in data set [1], in data set [2] and in data set [3] were 2.61 ± 0.16 kcal/mol, 2.81 ± 0.043 kcal/mol and 2.33 ± 0.14 kcal/mol, respectively.
On the same counts, the results for “SAGGSAGGSAGGSIVVRITPNPETGTVTIDVYRVLPPGVLRPGAGFTVPLSLIPPGAVVGSAGGSAGGSAGG [r7_455_TrMRF]” are 1.09 ± 0.053 kcal/mol, 1.17 ± 0.047 kcal/mol and 0.973 ± 0.018 kcal/mol.
“SAGGSAGGSAGGSKDITITHEHNPNGWYRVKIRFPDNGKKIEIWVPAGRSVEEALDWLFSAGGSAGGSAGGS [r4_393_TrROS]”: the “folding stability dG unfold” value in data set [1] stood at 3.25 ± 0.12 kcal/mol; in data set [2], 3.2 ± 0.038 kcal/mol; in data set [3], 3.06 ± 0.12 kcal/mol.
On the same counts, the results for “SAGGSAGGSAGGSKELTVLVVEKNEDGTLTVRKFKIELKDGELKIVEEEEKTVPLEELKSAGGSAGGSAGGS [r4_389_TrROS_Hall]” are 2.04 ± 0.12 kcal/mol, 2.42 ± 0.037 kcal/mol and 1.41 ± 0.074 kcal/mol.
For “SAGGSAGGSAGGSKETVKIAIKVKPGEKEITIEIKGKKYKVKVEEKDGLLYLTVSKEDLSAGGSAGGSAGGS [r4_430_TrROS_Hall]”, in that order: 3.34 ± 0.32 kcal/mol, 3.44 ± 0.22 kcal/mol and 4.4 ± 0.54 kcal/mol.
With “SAGGSAGGSAGGSKIRLKINMTEEELKELLKKLFPNAKVTRIERKKDGSIYVEIELEPESAGGSAGGSAGGS [r4_95_TrROS_Hall]”, the “folding stability dG unfold” value in data set [1] is 3.09 ± 0.11 kcal/mol; in data set [2], 3.23 ± 0.082 kcal/mol; in data set [3], 2.94 ± 0.11 kcal/mol.
For “SAGGSAGGSAGGSKKKKIIIVVPKEELSEEQIKALKDLGYEIEIVEVEKKPVKVKKKKKSAGGSAGGSAGGS [r4_294_TrROS_Hall]”, in that order: 1.53 ± 0.22 kcal/mol, 2.08 ± 0.12 kcal/mol and 0.62 ± 0.068 kcal/mol.
Consider “SAGGSAGGSAGGSKKKVLYIKIDVKPNMTPEEVAKLLQEKFGVKIKKVEVENGYLKIYFSAGGSAGGSAGGS [r4_469_TrROS_Hall]”, for which the “folding stability dG unfold” value in data set [1] worked out at 3.49 ± 0.048 kcal/mol; in data set [2], 3.8 ± 0.044 kcal/mol; in data set [3], 2.82 ± 0.062 kcal/mol.
With “SAGGSAGGSAGGSKKYFFKIKKIKVETKLEVNEDGSLTEEKKIEIEIELRELPSLEDLLSAGGSAGGSAGGS [r4_450_TrROS_Hall]”, the “folding stability dG unfold” value in data set [1] was 4.16 ± 0.2 kcal/mol; in data set [2], 4.62 ± 0.17 kcal/mol; in data set [3], 3.56 ± 0.25 kcal/mol.
As to “SAGGSAGGSAGGSKPKVKITIEKNKETNEYTITIEKDGKKYTFVVKNLKPDDPAIKKALSAGGSAGGSAGGS [r4_328_TrROS_Hall]”, the “folding stability dG unfold” value is 2.55 ± 0.09 kcal/mol in data set [1], 3.007 ± 0.03 kcal/mol in data set [2] and 1.1 ± 0.043 kcal/mol in data set [3].
For the sequence “SAGGSAGGSAGGSKTVLLKVNGKLVLKELKVEVELEAEPETTTTTTTTTTLKPGETKTLSAGGSAGGSAGGS [r4_215_TrROS_Hall]”, the “folding stability dG unfold” value was 0.109 ± 0.096 kcal/mol in data set [1], 0.397 ± 0.11 kcal/mol in data set [2] and -0.499 ± 0.17 kcal/mol in data set [3].
Regarding “SAGGSAGGSAGGSKTYRIYFKDNNKVITVKSKEDLKAALEKAGYTISEEDLDKIVKIEPSAGGSAGGSAGGS [r4_104_TrROS_Hall]”, the “folding stability dG unfold” value in data set [1] turned out to be 1.8 ± 0.087 kcal/mol; in data set [2] it was 1.81 ± 0.07 kcal/mol; in data set [3] it was 1.69 ± 0.046 kcal/mol.
For “SAGGSAGGSAGGSLAFEGSFRFRKLKLTFKRKLTRTRPDGEPEEFEEELELEVEVVLPVSAGGSAGGSAGGS [r4_418_TrMRF]”, the “folding stability dG unfold” value in data set [1] stood at 4.21 ± 0.4 kcal/mol; in data set [2], 4.84 ± 0.15 kcal/mol; in data set [3], 3.77 ± 0.09 kcal/mol.
For the sequence “SAGGSAGGSAGGSLEAIRKAIEEAQKNGHTVPISVRHPNGKDFTFEIEIQVVKPPPDEKSAGGSAGGSAGGS [r10_573_TrROS]”, the “folding stability dG unfold” value in data set [1] came out at 1.46 ± 0.13 kcal/mol; in data set [2], 1.47 ± 0.066 kcal/mol; in data set [3], 1.28 ± 0.043 kcal/mol.
